Experimental data reported in US20250025566A1, “PEPTIDE-DRUG CONJUGATES FOR TREATMENT OF NEURODEGENERATIVE DISEASES” (KØBENHAVNS UNIVERSITET, priority 2021, published 2025).
Square brackets hold non-standard residues; d marks the D form. Side chains are listed from the residue outwards. Ends that are not written are not given here. * marks the point of attachment. memantine = CC12CC3CC(C)(C1)CC(N*)(C3)C2; disulfide linker = not defined here; Pen = CC(C)(S)[C@H](N)C(=O)O

Tests used:
[1] = test system: primary rat hippocampal neurons; assay: Neuroprotection in primary hippocampal neurons (NMDA-induced neurotoxicity, LDH activity); type: cell-based; settings: NMDA 100 μM, 24 hours, GLP-1 1 μM
Protocol: Primary rat hippocampal neurons were incubated with either buffer, NMDA (to induce neurotoxicity), NDMA+GLP-1 or NMDA+GLP-1/memantine conjugate for 24 hours. Media was harvested and analysed for Lactate Dehydrogenase (LDH) activity as an indirect measure of cellular cytotoxicity.
Primary cultures of hippocampal neurons were prepared from Sprague-Dawley rat fetuses (E18) and cells were diluted in Neurobasal medium containing B27 supplement (5×10^5 cells/mL) in a Poly-L-Lysin pre-coated 24-well cell culture plate. The neurons were kept at 37° C. in a humidified incubator with 5% C02 atmosphere. After 8 days in vitro, cultures were treated with either vehicle, NMDA (100 μM), NMDA+GLP-1 (1 μM) or NMDA+GLP-1/Memantine for 24 hours. Cell culture medium (50 μL) was dispatched to a 96-well ELISA plate and analyzed for Lactate Dehydrogenase (LDH) activity (CytoTox-96, Nonradioactive Cytotoxicity assay, Promega) according to the manufacturer's protocol.

5×FAD mice = assay: Number of amyloid plaques in frontal cortex and hippocampus of 5×FAD mice (Thioflavine S); type: in vivo; settings: once-daily subcutaneous, 49 days, vs saline
Text: Amyloid plaques are commonly found in subjects suffering from Alzheimer's and is caused by abnormal levels of the naturally occurring protein beta-amyloid 42 which clump together to form plaques that collect between neurons and disrupt cell function. Thus, patients suffering from Alzheimer's display elevated levels of amyloid plaques. […] Thus, without being bound by any particular theory, the inventors postulate that the conjugated molecule according to the present invention has a neuroprotective role.
Experiments were conducted using female 5×FAD (Jackson Laboratory, 34840-JAX) mice kept on a chow diet (Altromin #1310, Lage, Germany). The pharmacological studies were initiated at 8-week of age and the mice treated with once-daily subcutaneous injections of GLP-1/memantine or saline (control) for 49 days. Specifically, compounds were administered at a volume of 5 μL per gram, mice group housed (n=2-5 mice per cage) and maintained on a 12-hour light-dark cycle (light 6 am-[…]) at a temperature of 21-23° C. For week 5 and 6, the mice were single-housed and transferred to a digitally ventilated cage system. […] Every 6th slide through hippocampus (bregma: −2.80 mm to −0.94 mm) and frontal cortex (bregma: 0.14 mm to 2.96 mm) were collected and stained with Thioflavine S to quantify amyloid plaque deposition.

[2] = Body weight progression of 5×FAD Alzheimer's disease mouse model; type: in vivo; settings: female 5×FAD mice, 100 nmol/kg/day subcutaneous daily, 49 days
Protocol: Female wild-type (WT) control mice+vehicle treatment (n=12), 5×FAD AD mice+vehicle treatment and 5×FAD AD mice+GLP-1/memantine (100 nmol/kg/day) treatment were subcutaneously injected daily for 49 days following which brain regions of the mice were dissected and saved for ex vivo analyses.
(§1) Experiments were conducted using female 5×FAD (Jackson Laboratory, 34840-JAX) mice kept on a chow diet (Altromin #1310, Lage, Germany). The pharmacological studies were initiated at 8-week of age and the mice treated with once-daily subcutaneous injections of GLP-1/memantine or saline (control) for 49 days with weekly measurements of body weight. Specifically, compounds were administered at a volume of 5 μL per gram, mice group-housed (n=2-5 mice per cage) and maintained on a 12-hour light-dark cycle (light 6 am-[…]) at a temperature of 21-23° C. For week 5 and 6, the mice were single-housed and transferred to a digitally ventilated cage system. For week 7, the mice were re-grouped in groups identical to weeks 0 to 4. Finally, mice were euthanized on day 49, tissues harvested, snap-frozen using liquid nitrogen and stored at −80° C. prior to analyses.

[3] = test system: pro-inflammatory markers IL-1b, IL-6 and TNF-α; assay: Gene expression of pro-inflammatory markers in hippocampus of 5×FAD mice (qPCR); type: in vivo; settings: once-daily subcutaneous, 49 days
Protocol: Expression (as measured by mRNA) of pro-inflammatory markers, IL-1b, IL-6 and TNF-α increased across the board in the 5×FAD AD mouse model.
as §1, with “For week 5 and 6, the mice were single-housed and transferred to a digitally ventilated cage system. For week 7, the mice were re-grouped in groups identical to weeks 0 to 4. Finally, mice were euthanized on day 49, tissues harvested, snap-frozen using liquid nitrogen and stored at −80° C. prior to analyses.” left out
Hippocampal tissue from Example 3 was homogenized in a Trizol reagent (QIAzol Lysis Reagent, Qiagen) using a stainless steel bead (Qiagen) and a TissueLyser LT (Qiagen) for 3 min at 20 Hz. […] After RNA extraction, RNA content was measured using a NanoDrop 2000 (Thermo Fisher) and 500 ng of RNA was converted into cDNA by mixing FS buffer and DTT (Thermo Fisher) with Random Primers (Sigma-Aldrich) and incubated for 3 min at 70° C. followed by addition of dNTPs, RNase out, Superscript III (Thermo Fisher) and placed in a thermal cycler for 5 min at 25° C., 60 min at 50° C., 15 min at 70° C., and kept at −20° C. until further processing. […]

Substance	NMDA-induced neurotoxicity (Lactate Dehydrogenase activity in media as indirect measure of cytotoxicity) [1]	number of amyloid plaques in frontal cortex and hippocampus (5×FAD mice)	body weight progression [2]	expression (mRNA) of pro-inflammatory markers IL-1b, IL-6 and TNF-α in hippocampus [3]
GLP-1: GLP-1 peptide alone, the unconjugated peptide control in the neuroprotection test [reference compound]	but not GLP-1 peptide alone, prevents the NMDA-induced neurotoxicity			
GLP-1 Pen40/memantine: GLP-1 peptide of SEQ ID NO:1 with Pen40, conjugated to memantine via disulfide linker (penicillamine linked) (HAEGTFTSDVSSYLEEQAAKEFIAWLVKGGPSSGAPPPS[Pen]([disulfide linker-memantine])-NH2; reading uncertain; listed as Homo sapiens)	prevents the NMDA-induced neurotoxicity	reduced formation of amyloid plaques	elicits only a transient weight loss	completely abolishes the induction of inflammation
